Measurements as given in patent US20250043302A1, “MUTATED HYDROXYPHENYLPYRUVATE DIOXYGENASE POLYPEPTIDE, AND CODING GENE AND USE THEREOF” (BEIJING DABEINONG BIOTECHNOLOGY CO., LTD., priority 2021, published 2025).

Legend:
Format in all cases: in vivo
[1] = test system: Arabidopsis thaliana T1 plants; experiment: Isoxaflutole tolerance of transgenic Arabidopsis thaliana T1 plants (spray, bleached leaf area grade, damage score); conditions: Arabidopsis thaliana T1 plants; for Grade 0 (classification and statistics of the grade of pesticide damage; number of plants) / Grade 1 (classification and statistics of the grade of pesticide damage; number of plants) / Grade 2 (classification and statistics of the grade of pesticide damage; number of plants) / Grade 3 (classification and statistics of the grade of pesticide damage; number of plants): 16 plants;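 for Scores: Weighted damage index from 0 to 100 where higher means more damage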
Outline: (§1)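 T1 transformants selected by glufosinate; 18-day-old plants, with empty-vector and wild-type controls, sprayed with topramezone (25–200 g ai/ha), isoxaflutole (35–280 g ai/ha) or mesotrione (52.5–420 g ai/ha), water as 0×. Bleached leaf area fraction scored at 7 DAT as grades 0–3.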

[2] = test system: Arabidopsis thaliana T1 plants; experiment: Topramezone tolerance of transgenic Arabidopsis thaliana T1 plants (spray, bleached leaf area grade, damage score); conditions: for Resistance evaluation / Scores / Grade 0 (classification and statistics of the grade of pesticide damage; number of plants) / Grade 1 (classification and statistics of the grade of pesticide damage; number of plants) / Grade 2 (classification and statistics of the grade of pesticide damage; number of plants) / Grade 3 (classification and statistics of the grade of pesticide damage; number of plants): Arabidopsis thaliana T1 plants; for Grade 0 (classification and statistics of the grade of pesticide damage; number of plants) / Grade 1 (classification and statistics of the grade of pesticide damage; number of plants) / Grade 2 (classification and statistics of the grade of pesticide damage; number of plants) / Grade 3 (classification and statistics of the grade of pesticide damage; number of plants): 16 plants
Outline: as §1

[3] = test system: Arabidopsis thaliana T1 plants; experiment: Mesotrione tolerance of transgenic Arabidopsis thaliana T1 plants (spray, bleached leaf area grade, damage score); parameters: Scores: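 damage score 0-100 computed as Σ(N×S)/(T×M)×100 over grades 0-3 with higher meaning more damage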; conditions: Table 9; for Classification and statistics of the grade of pesticide damage Grade 0: number of plants at grade 0; for Classification and statistics of the grade of pesticide damage Grade 1: number of plants at grade 1; for Classification and statistics of the grade of pesticide damage Grade 2: number of plants at grade 2; for Classification and statistics of the grade of pesticide damage Grade 3: number of plants at grade 3; for Scores: pesticide damage score
Outline: as §1

[4] = isoxaflutole 140 g ai/ha (2x field concentration)
[5] = isoxaflutole 280 g ai/ha (4x field concentration)
[6] = topramezone 100 g ai/ha (4x field concentration)
[7] = topramezone 200 g ai/ha (8x field concentration)

B1: AsHPPDm-F372V-F383W-02: nucleotide sequence encoding Avena sativa HPPD with F372V+F383W; vector DBN11777 (nucleic acid)
DNA: ATGCCACCTACTCCAGCTACAGCTACTGGTGCTGCTGCTGCTGCCGTTACTCCTGAGCACGCTGCCAGGTCATTCCCCAGGGTGGTTCGCGTGAACCCCAGATCTGATAGGTTCCCAGTTCTGAGCTTCCACCATGTTGAGCTGTGGTGCGCTGATGCTGCTTCTGCTGCTGGCAGGTTCTCTTTCGCTCTTGGTGCTCCACTCGCTGCTAGATCTGATCTGTCTACAGGAAATAGCGCTCATGCCTCACTCCTGCTTCGCTCAGGTGCTTTGGCCTTCCTCTTCACCGCTCCATATGCTCCCCCACCTCAGGAGGCTGCTACTGCTGCTGCTACAGCCTCCATTCCAAGCTTCTCAGCTGATGCCGCTAGAACCTTCGCTGCTGCTCATGGACTTGCCGTGAGGTCTGTTGGTGTTCGCGTGGCTGATGCTGCTGAGGCTTTCAGAGTTTCCGTTGCCGGCGGAGCTAGGCCAGCTTTCGCTCCTGCTGATTTGGGACATGGTTTCGGCCTGGCTGAGGTTGAGCTTTACGGTGACGTGGTTCTCCGCTTCGTGTCTTACCCAGATGAGACTGACCTGCCTTTCCTTCCCGGCTTCGAGAGAGTTTCCTCTCCTGGTGCCGTGGATTACGGCCTGACAAGGTTCGACCACGTGGTTGGAAACGTTCCCGAGATGGCTCCAGTGATCGATTACATGAAGGGCTTCCTTGGATTCCATGAGTTCGCCGAGTTCACTGCTGAGGACGTGGGAACCACTGAGTCCGGTTTGAACTCTGTGGTTCTCGCCAACAATTCTGAGGCTGTTTTGCTCCCTCTGAATGAGCCTGTGCATGGAACCAAGAGGAGAAGCCAGATTCAAACTTACCTGGAGTACCACGGTGGCCCTGGAGTTCAGCATATCGCCCTTGCTTCTAATGATGTGTTGCGCACACTCAGAGAGATGCGCGCCAGAACCCCCATGGGAGGTTTCGAGTTCATGGCCCCACCACAGGCTAAGTACTACGAGGGCGTTAGAAGGATTGCTGGAGACGTGTTGAGCGAGGAGCAGATCAAGGAGTGCCAAGAGCTGGGTGTTCTTGTGGATAGGGATGACCAGGGCGTTCTGCTTCAAATTGTCACTAAGCCAGTGGGCGACCGCCCTACATTCTGGCTTGAGATGATTCAAAGAATCGGCTGCATGGAGAAGGATGAGGTTGGACAGGAGTACCAAAAGGGCGGATGCGGTGGCTTCGGAAAGGGTAACTTCAGCGAGTTGTTCAAGTCAATCGAGGACTACGAGAAGAGCCTCGAGGTGAAGCAGTCAGTGGTTGCCCAAAAGTCCTGA
modifications: AsHPPDm-F372V-F383W-02 Nucleotide Sequence
notes: vector DBN11777
B1 was tested, and the Resistance evaluation [1, 4] was “Highly resistant”, the Scores [1, 4] was 0 and the “Grade 0 (classification and statistics of the grade of pesticide damage; number of plants)” value [1, 4] was 16. For the same molecule, the “Grade 1 (classification and statistics of the grade of pesticide damage; number of plants)” value [1, 4] was 0, the “Grade 2 (classification and statistics of the grade of pesticide damage; number of plants)” value [1, 4] was 0 and the “Grade 3 (classification and statistics of the grade of pesticide damage; number of plants)” value [1, 4] was 0. The Resistance evaluation [1, 5] was “Highly resistant”, the Scores [1, 5] was 10 and the “Grade 0 (classification and statistics of the grade of pesticide damage; number of plants)” value [1, 5] was 12. The “Grade 1 (classification and statistics of the grade of pesticide damage; number of plants)” value [1, 5] was 3, the “Grade 2 (classification and statistics of the grade of pesticide damage; number of plants)” value [1, 5] was 1 and the “Grade 3 (classification and statistics of the grade of pesticide damage; number of plants)” value [1, 5] was 0. The Resistance evaluation [2, 6] was “Highly resistant”, the Scores [2, 6] was 0 and the “Grade 0 (classification and statistics of the grade of pesticide damage; number of plants)” value [2, 6] was 16. The “Grade 1 (classification and statistics of the grade of pesticide damage; number of plants)” value [2, 6] was 0, the “Grade 2 (classification and statistics of the grade of pesticide damage; number of plants)” value [2, 6] was 0 and the “Grade 3 (classification and statistics of the grade of pesticide damage; number of plants)” value [2, 6] was 0. For the same molecule, the Resistance evaluation [2, 7] was “Highly resistant”, the Scores [2, 7] was 0 and the “Grade 0 (classification and statistics of the grade of pesticide damage; number of plants)” value [2, 7] was 16. The “Grade 1 (classification and statistics of the grade of pesticide damage; number of plants)” value [2, 7] was 0, the “Grade 2 (classification and statistics of the grade of pesticide damage; number of plants)” value [2, 7] was 0 and the “Grade 3 (classification and statistics of the grade of pesticide damage; number of plants)” value [2, 7] was 0. For the same molecule, the “tolerance to topramezone (resistance class)” value ([2]; topramezone at four-fold or eight-fold field concentration) was “highly-resistant”, the Resistance evaluation ([3]; mesotrione 210 g ai/ha (2×)) was “Highly resistant” and the “Classification and statistics of the grade of pesticide damage Grade 0” value ([3]; mesotrione 210 g ai/ha (2×)) was 16. The “Classification and statistics of the grade of pesticide damage Grade 1” value ([3]; mesotrione 210 g ai/ha (2×)) was 0, the “Classification and statistics of the grade of pesticide damage Grade 2” value ([3]; mesotrione 210 g ai/ha (2×)) was 0 and the “Classification and statistics of the grade of pesticide damage Grade 3” value ([3]; mesotrione 210 g ai/ha (2×)) was 0. The Scores ([3]; mesotrione 210 g ai/ha (2×)) was 0, the Resistance evaluation ([3]; mesotrione 420 g ai/ha (4×)) was “Highly resistant” and the “Classification and statistics of the grade of pesticide damage Grade 0” value ([3]; mesotrione 420 g ai/ha (4×)) was 15. For the same molecule, the “Classification and statistics of the grade of pesticide damage Grade 1” value ([3]; mesotrione 420 g ai/ha (4×)) was 1, the “Classification and statistics of the grade of pesticide damage Grade 2” value ([3]; mesotrione 420 g ai/ha (4×)) was 0 and the “Classification and statistics of the grade of pesticide damage Grade 3” value ([3]; mesotrione 420 g ai/ha (4×)) was 0. For the same molecule, the Scores ([3]; mesotrione 420 g ai/ha (4×)) was 2.
